In US11701440B2, “Modified antibody and radioactive metal-labelled antibody” (NIHON MEDI-PHYSICS CO., LTD., priority 2018, dated 2023):

Assay: Animal Experiment (1): radioactivity distribution of 111In-labeled NGA in organs after tail vein administration
Protocol: Five mice per group were slaughtered 5 minutes or 1 hour after the administration, the blood and organs of interest were recovered, and after measuring the organ weight, the radioactivity was measured with an auto-well gamma counter.

[1] = mouse, in vivo, iv, 11.1 kBq/8 ug protein/100 uL/mouse, 5 min
[2] = mouse, in vivo, iv, 11.1 kBq/8 ug protein/100 uL/mouse, 1 h
[3] = 5 minutes after the administration, tail vein, male ddY mouse
[4] = 1 hour after the administration, tail vein, male ddY mouse

Substance: ^111In-DO3ABn-Phe-Lys-NGA
- radioactivity (% ID) Blood [1]: 0.1 ± 0.0 % ID
- radioactivity (% ID) Kidney [1]: 0.2 ± 0.0 % ID
- radioactivity (% ID) Liver [1]: 91.1 ± 6.2 % ID
- radioactivity (% ID) Lung [1]: 0.1 ± 0.0 % ID
- radioactivity (% ID) Small intestine [1]: 0.1 ± 0.1 % ID
- radioactivity (% ID) Spleen [1]: 0.2 ± 0.0 % ID
- radioactivity (% ID) Stomach [1]: 0.1 ± 0.1 % ID
- radioactivity (% ID) Kidney [2]: 0.9 ± 0.3 % ID
- radioactivity (% ID) Liver [2]: 49.5 ± 5.6 % ID
- radioactivity (% ID) Lung [2]: 0.1 ± 0.1 % ID
- radioactivity (% ID) Small intestine [2]: 27.8 ± 6.5 % ID
- radioactivity (% ID) Spleen [2]: 0.2 ± 0.1 % ID
- radioactivity (% ID) Stomach [2]: 1.1 ± 0.7 % ID

Substance: ^111In-DO3ABn-Gly-Lys-NGA
- radioactivity (% ID) Blood [3]: 0.1 ± 0.2 % ID
- radioactivity (% ID) Heart [3]: 0.0 ± 0.0 % ID
- radioactivity (% ID) Kidney [3]: 0.1 ± 0.0 % ID
- radioactivity (% ID) Liver [3]: 89.5 ± 3.4 % ID
- radioactivity (% ID) Lung [3]: 0.1 ± 0.1 % ID
- radioactivity (% ID) Pancreas [3]: 0.0 ± 0.0 % ID
- radioactivity (% ID) Small intestine [3]: 0.1 ± 0.1 % ID
- radioactivity (% ID) Spleen [3]: 0.2 ± 0.0 % ID
- radioactivity (% ID) Stomach [3]: 0.1 ± 0.1 % ID
- radioactivity (% ID) Blood [4]: 0.0 ± 0.0 % ID
- radioactivity (% ID) Heart [4]: 0.0 ± 0.0 % ID
- radioactivity (% ID) Kidney [4]: 0.2 ± 0.0 % ID
- radioactivity (% ID) Liver [4]: 89.1 ± 1.2 % ID
- radioactivity (% ID) Lung [4]: 0.0 ± 0.0 % ID
- radioactivity (% ID) Pancreas [4]: 0.0 ± 0.0 % ID
- radioactivity (% ID) Small intestine [4]: 2.5 ± 0.7 % ID
- radioactivity (% ID) Spleen [4]: 0.2 ± 0.0 % ID
- radioactivity (% ID) Stomach [4]: 0.1 ± 0.1 % ID
